For this experiment, the target named is TrkA (rat (endogenous in PC12 rat …, UniProt P35739 33-799)). The experiment can be described thus: cell-based or functional assay.
TrkA (rat, sequence (P35739 33-799): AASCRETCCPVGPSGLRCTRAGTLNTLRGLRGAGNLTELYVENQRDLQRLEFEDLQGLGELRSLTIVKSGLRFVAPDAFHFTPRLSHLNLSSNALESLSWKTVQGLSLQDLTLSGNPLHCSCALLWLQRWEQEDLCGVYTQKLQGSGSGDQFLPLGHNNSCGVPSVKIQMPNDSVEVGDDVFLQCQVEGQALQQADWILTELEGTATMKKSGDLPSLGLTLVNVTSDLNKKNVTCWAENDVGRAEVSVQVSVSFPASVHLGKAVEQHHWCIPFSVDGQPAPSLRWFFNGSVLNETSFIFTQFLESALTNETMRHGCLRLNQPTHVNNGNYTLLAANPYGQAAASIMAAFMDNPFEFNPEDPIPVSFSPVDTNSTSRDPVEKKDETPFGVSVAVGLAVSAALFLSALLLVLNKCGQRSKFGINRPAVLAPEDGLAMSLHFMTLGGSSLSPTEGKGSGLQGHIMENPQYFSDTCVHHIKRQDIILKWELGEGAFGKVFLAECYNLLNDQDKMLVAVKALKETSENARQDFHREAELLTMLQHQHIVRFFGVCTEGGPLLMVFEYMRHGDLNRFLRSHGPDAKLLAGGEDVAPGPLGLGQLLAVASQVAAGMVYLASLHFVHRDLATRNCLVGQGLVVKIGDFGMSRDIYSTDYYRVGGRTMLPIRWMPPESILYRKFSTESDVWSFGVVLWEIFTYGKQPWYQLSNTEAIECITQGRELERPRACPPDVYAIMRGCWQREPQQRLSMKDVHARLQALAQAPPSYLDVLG

B1: SPKR4NL1-2 (other)
chain: MGHHHHHHHHHHSSGHIEGRHMSPKRSPKRSPKRSPKRGGTYLSEDELKAAEAAFKRHNPTGSCSVSVWVGDKTTATDIKGKEVMVLGEVNINNSVFKQYFFETKCRDPNPVDSG
modifications: disulfide bridge intended between the added Cys and the Cys corresponding to C58 of NGF
For B1, the “increase in gene expression in PC12 cells, SPKR4NL1-2 group against (SPKR)4 group (luciferase)” value was 1400 fold.

These data come from patent US20050048606A1 (AGENCY FOR SCIENCE TECHNOLOGY AND RESEARCH, published 2005).
